Data on six molecules can be found in patent publication US20240270846A1 (published 2024).

First the molecules themselves.
B1: GLS3000 N28I (Kabat) L chain altered form, one-arm antibody with CE115HA000 (antibody, human IgG1, kappa, L234A L235A, N297A, name in Kabat numbering)
heavy: QVQLVESGGGVVQPGRSLRLSCAASGFTFSNAWMHWVRQAPGKGLEWVAQIKAKSNNYATYYAESVKGRFTISRDDSKNSLYLQMNSLKTEDTAVYYCRYVHYGAYYGVDAWGQGTTVTVSSASTKGPSVFPLAPSSKSTSGGTAALGCLVKDYFPEPVTVSWNSGALTSGVHTFPAVLQSSGLYSLSSVVTVPSSSLGTQTYICNVNHKPSNTKVDKKVEPKSCDKTHTCPPCPAPEAAGGPSVFLFPPKPKDTLMISRTPEVTCVVVDVSHEDPEVKFNWYVDGVEVHNAKTKPREEQYASTYRVVSVLTVLHQDWLNGKEYKCKVSNKALPAPIEKTISKAKGQPREPQVYTLPPSRCELTKNQVSLSCAVKGFYPSDIAVEWESNGQPENNYKTTPPVLDSDGSFFLVSKLTVDKSRWQQGNVFSCSVMHEALHNHYTQKSLSLSPDYKDDDDK
chain: EPKSSDKTHTCPPCPAPELLGGPSVFLFPPKPKDTLMISRTPEVTCVVVDVSHEDPEVKFNWYVDGVEVHNAKTKPREEQYNSTYRVVSVLTVLHQDWLNGKEYKCKVSNKALPAPIEKTISKAKGQPREPQVCTLPPSRDELTKNQVSLWCLVKGFYPSDIAVEWESNGQPENNYKTTPPVLDSDGSFFLYSKLTVDKSRWQQGNVFSCSVMHEALHNRYTQKSLSLSP
light: DIVMTQSPLSLPVTPGEPASISCRSSQSLVHSIRNTYLHWYQQKPGQAPRLLIYKVSNRFSGVPDRFSGSGSGTDFTLKISRVEAEDVGVYYCGQGTQVPYTFGQGTKLEIKRTVAAPSVFIFPPSDEQLKSGTASVVCLLNNFYPREAKVQWKVDNALQSGNSQESVTEQDSKDSTYSLSSTLTLSKADYEKHKVYACEVTHQGLSSPVTKSFNRGEC
notes: one-arm antibody
B2: GLS3000 N28L (Kabat) L chain altered form, one-arm antibody with CE115HA000 (antibody, human IgG1, kappa, L234A L235A, N297A, name in Kabat numbering)
heavy: QVQLVESGGGVVQPGRSLRLSCAASGFTFSNAWMHWVRQAPGKGLEWVAQIKAKSNNYATYYAESVKGRFTISRDDSKNSLYLQMNSLKTEDTAVYYCRYVHYGAYYGVDAWGQGTTVTVSSASTKGPSVFPLAPSSKSTSGGTAALGCLVKDYFPEPVTVSWNSGALTSGVHTFPAVLQSSGLYSLSSVVTVPSSSLGTQTYICNVNHKPSNTKVDKKVEPKSCDKTHTCPPCPAPEAAGGPSVFLFPPKPKDTLMISRTPEVTCVVVDVSHEDPEVKFNWYVDGVEVHNAKTKPREEQYASTYRVVSVLTVLHQDWLNGKEYKCKVSNKALPAPIEKTISKAKGQPREPQVYTLPPSRCELTKNQVSLSCAVKGFYPSDIAVEWESNGQPENNYKTTPPVLDSDGSFFLVSKLTVDKSRWQQGNVFSCSVMHEALHNHYTQKSLSLSPDYKDDDDK
chain: EPKSSDKTHTCPPCPAPELLGGPSVFLFPPKPKDTLMISRTPEVTCVVVDVSHEDPEVKFNWYVDGVEVHNAKTKPREEQYNSTYRVVSVLTVLHQDWLNGKEYKCKVSNKALPAPIEKTISKAKGQPREPQVCTLPPSRDELTKNQVSLWCLVKGFYPSDIAVEWESNGQPENNYKTTPPVLDSDGSFFLYSKLTVDKSRWQQGNVFSCSVMHEALHNRYTQKSLSLSP
light: DIVMTQSPLSLPVTPGEPASISCRSSQSLVHSLRNTYLHWYQQKPGQAPRLLIYKVSNRFSGVPDRFSGSGSGTDFTLKISRVEAEDVGVYYCGQGTQVPYTFGQGTKLEIKRTVAAPSVFIFPPSDEQLKSGTASVVCLLNNFYPREAKVQWKVDNALQSGNSQESVTEQDSKDSTYSLSSTLTLSKADYEKHKVYACEVTHQGLSSPVTKSFNRGEC
notes: one-arm antibody
B3: GLS3000 N28M (Kabat) L chain altered form, one-arm antibody with CE115HA000 (antibody, human IgG1, kappa, L234A L235A, N297A, name in Kabat numbering)
heavy: QVQLVESGGGVVQPGRSLRLSCAASGFTFSNAWMHWVRQAPGKGLEWVAQIKAKSNNYATYYAESVKGRFTISRDDSKNSLYLQMNSLKTEDTAVYYCRYVHYGAYYGVDAWGQGTTVTVSSASTKGPSVFPLAPSSKSTSGGTAALGCLVKDYFPEPVTVSWNSGALTSGVHTFPAVLQSSGLYSLSSVVTVPSSSLGTQTYICNVNHKPSNTKVDKKVEPKSCDKTHTCPPCPAPEAAGGPSVFLFPPKPKDTLMISRTPEVTCVVVDVSHEDPEVKFNWYVDGVEVHNAKTKPREEQYASTYRVVSVLTVLHQDWLNGKEYKCKVSNKALPAPIEKTISKAKGQPREPQVYTLPPSRCELTKNQVSLSCAVKGFYPSDIAVEWESNGQPENNYKTTPPVLDSDGSFFLVSKLTVDKSRWQQGNVFSCSVMHEALHNHYTQKSLSLSPDYKDDDDK
chain: EPKSSDKTHTCPPCPAPELLGGPSVFLFPPKPKDTLMISRTPEVTCVVVDVSHEDPEVKFNWYVDGVEVHNAKTKPREEQYNSTYRVVSVLTVLHQDWLNGKEYKCKVSNKALPAPIEKTISKAKGQPREPQVCTLPPSRDELTKNQVSLWCLVKGFYPSDIAVEWESNGQPENNYKTTPPVLDSDGSFFLYSKLTVDKSRWQQGNVFSCSVMHEALHNRYTQKSLSLSP
light: DIVMTQSPLSLPVTPGEPASISCRSSQSLVHSMRNTYLHWYQQKPGQAPRLLIYKVSNRFSGVPDRFSGSGSGTDFTLKISRVEAEDVGVYYCGQGTQVPYTFGQGTKLEIKRTVAAPSVFIFPPSDEQLKSGTASVVCLLNNFYPREAKVQWKVDNALQSGNSQESVTEQDSKDSTYSLSSTLTLSKADYEKHKVYACEVTHQGLSSPVTKSFNRGEC
notes: one-arm antibody
B4: GLS3000 N28Q (Kabat) L chain altered form, one-arm antibody with CE115HA000 (antibody, human IgG1, kappa, L234A L235A, N297A, name in Kabat numbering)
heavy: QVQLVESGGGVVQPGRSLRLSCAASGFTFSNAWMHWVRQAPGKGLEWVAQIKAKSNNYATYYAESVKGRFTISRDDSKNSLYLQMNSLKTEDTAVYYCRYVHYGAYYGVDAWGQGTTVTVSSASTKGPSVFPLAPSSKSTSGGTAALGCLVKDYFPEPVTVSWNSGALTSGVHTFPAVLQSSGLYSLSSVVTVPSSSLGTQTYICNVNHKPSNTKVDKKVEPKSCDKTHTCPPCPAPEAAGGPSVFLFPPKPKDTLMISRTPEVTCVVVDVSHEDPEVKFNWYVDGVEVHNAKTKPREEQYASTYRVVSVLTVLHQDWLNGKEYKCKVSNKALPAPIEKTISKAKGQPREPQVYTLPPSRCELTKNQVSLSCAVKGFYPSDIAVEWESNGQPENNYKTTPPVLDSDGSFFLVSKLTVDKSRWQQGNVFSCSVMHEALHNHYTQKSLSLSPDYKDDDDK
chain: EPKSSDKTHTCPPCPAPELLGGPSVFLFPPKPKDTLMISRTPEVTCVVVDVSHEDPEVKFNWYVDGVEVHNAKTKPREEQYNSTYRVVSVLTVLHQDWLNGKEYKCKVSNKALPAPIEKTISKAKGQPREPQVCTLPPSRDELTKNQVSLWCLVKGFYPSDIAVEWESNGQPENNYKTTPPVLDSDGSFFLYSKLTVDKSRWQQGNVFSCSVMHEALHNRYTQKSLSLSP
light: DIVMTQSPLSLPVTPGEPASISCRSSQSLVHSQRNTYLHWYQQKPGQAPRLLIYKVSNRFSGVPDRFSGSGSGTDFTLKISRVEAEDVGVYYCGQGTQVPYTFGQGTKLEIKRTVAAPSVFIFPPSDEQLKSGTASVVCLLNNFYPREAKVQWKVDNALQSGNSQESVTEQDSKDSTYSLSSTLTLSKADYEKHKVYACEVTHQGLSSPVTKSFNRGEC
notes: one-arm antibody
B5: GLS3000 N28P (Kabat) L chain altered form, one-arm antibody with CE115HA000 (antibody, human IgG1, kappa, L234A L235A, N297A, name in Kabat numbering)
heavy: QVQLVESGGGVVQPGRSLRLSCAASGFTFSNAWMHWVRQAPGKGLEWVAQIKAKSNNYATYYAESVKGRFTISRDDSKNSLYLQMNSLKTEDTAVYYCRYVHYGAYYGVDAWGQGTTVTVSSASTKGPSVFPLAPSSKSTSGGTAALGCLVKDYFPEPVTVSWNSGALTSGVHTFPAVLQSSGLYSLSSVVTVPSSSLGTQTYICNVNHKPSNTKVDKKVEPKSCDKTHTCPPCPAPEAAGGPSVFLFPPKPKDTLMISRTPEVTCVVVDVSHEDPEVKFNWYVDGVEVHNAKTKPREEQYASTYRVVSVLTVLHQDWLNGKEYKCKVSNKALPAPIEKTISKAKGQPREPQVYTLPPSRCELTKNQVSLSCAVKGFYPSDIAVEWESNGQPENNYKTTPPVLDSDGSFFLVSKLTVDKSRWQQGNVFSCSVMHEALHNHYTQKSLSLSPDYKDDDDK
chain: EPKSSDKTHTCPPCPAPELLGGPSVFLFPPKPKDTLMISRTPEVTCVVVDVSHEDPEVKFNWYVDGVEVHNAKTKPREEQYNSTYRVVSVLTVLHQDWLNGKEYKCKVSNKALPAPIEKTISKAKGQPREPQVCTLPPSRDELTKNQVSLWCLVKGFYPSDIAVEWESNGQPENNYKTTPPVLDSDGSFFLYSKLTVDKSRWQQGNVFSCSVMHEALHNRYTQKSLSLSP
light: DIVMTQSPLSLPVTPGEPASISCRSSQSLVHSPRNTYLHWYQQKPGQAPRLLIYKVSNRFSGVPDRFSGSGSGTDFTLKISRVEAEDVGVYYCGQGTQVPYTFGQGTKLEIKRTVAAPSVFIFPPSDEQLKSGTASVVCLLNNFYPREAKVQWKVDNALQSGNSQESVTEQDSKDSTYSLSSTLTLSKADYEKHKVYACEVTHQGLSSPVTKSFNRGEC
notes: one-arm antibody
B6: GLS3000 N28K (Kabat) L chain altered form, one-arm antibody with CE115HA000 (antibody, human IgG1, kappa, L234A L235A, N297A, name in Kabat numbering)
heavy: QVQLVESGGGVVQPGRSLRLSCAASGFTFSNAWMHWVRQAPGKGLEWVAQIKAKSNNYATYYAESVKGRFTISRDDSKNSLYLQMNSLKTEDTAVYYCRYVHYGAYYGVDAWGQGTTVTVSSASTKGPSVFPLAPSSKSTSGGTAALGCLVKDYFPEPVTVSWNSGALTSGVHTFPAVLQSSGLYSLSSVVTVPSSSLGTQTYICNVNHKPSNTKVDKKVEPKSCDKTHTCPPCPAPEAAGGPSVFLFPPKPKDTLMISRTPEVTCVVVDVSHEDPEVKFNWYVDGVEVHNAKTKPREEQYASTYRVVSVLTVLHQDWLNGKEYKCKVSNKALPAPIEKTISKAKGQPREPQVYTLPPSRCELTKNQVSLSCAVKGFYPSDIAVEWESNGQPENNYKTTPPVLDSDGSFFLVSKLTVDKSRWQQGNVFSCSVMHEALHNHYTQKSLSLSPDYKDDDDK
chain: EPKSSDKTHTCPPCPAPELLGGPSVFLFPPKPKDTLMISRTPEVTCVVVDVSHEDPEVKFNWYVDGVEVHNAKTKPREEQYNSTYRVVSVLTVLHQDWLNGKEYKCKVSNKALPAPIEKTISKAKGQPREPQVCTLPPSRDELTKNQVSLWCLVKGFYPSDIAVEWESNGQPENNYKTTPPVLDSDGSFFLYSKLTVDKSRWQQGNVFSCSVMHEALHNRYTQKSLSLSP
light: DIVMTQSPLSLPVTPGEPASISCRSSQSLVHSKRNTYLHWYQQKPGQAPRLLIYKVSNRFSGVPDRFSGSGSGTDFTLKISRVEAEDVGVYYCGQGTQVPYTFGQGTKLEIKRTVAAPSVFIFPPSDEQLKSGTASVVCLLNNFYPREAKVQWKVDNALQSGNSQESVTEQDSKDSTYSLSSTLTLSKADYEKHKVYACEVTHQGLSSPVTKSFNRGEC
notes: one-arm antibody

T1 sequence (P07766 23-126): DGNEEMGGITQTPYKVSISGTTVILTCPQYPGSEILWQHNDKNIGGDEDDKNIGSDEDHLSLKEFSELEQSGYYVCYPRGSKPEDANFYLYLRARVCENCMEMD

This assay has as its target T1, CD3 epsilon homodimer protein (UniProt P07766 23-126).
T1 construct: construct not described; homodimer as printed; also called CD3 (CD3 epsilon)
Briefly: SPR Biacore T200, CD3 epsilon homodimer immobilized; vs unaltered GLS3000.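 Also: antibody variants flowed as analyte over CD3 epsilon homodimer amine-coupled to a CM4 chip, at 25 °C in HBS-EP+ running buffer, fitted with Biacore T200 Evaluation Software.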 For orientation: In SPR one partner is held on a chip, and binding of the other changes the refractive index at the surface.
Consider B1, for which the “KD ratio to GLS3000 (Affinity up)” value turned out to be 2.81.
For the molecule B2, the “KD ratio to GLS3000 (Affinity up)” value turned out to be 3.34.
In the case of B3, the “KD ratio to GLS3000 (Affinity up)” value worked out at 3.29.
For the molecule B4, the “KD ratio to GLS3000 (Affinity up)” value came out at 3.48.
For the molecule B5, the “KD ratio to GLS3000 (Affinity up)” value came out at 4.18.
Turning to B6, the “KD ratio to GLS3000 (Affinity up)” value came out at 2.34.
